Assay results as given in US6432645B1, “Beta subunits of Slo family potassium channels” (ICAgen Inc., priority 1999, dated 2002).

Experiments:
Slo-1 [1] = molecular target: T1, Slo-1 (Homo sapiens, UniProt Q12791); assay: cell-based or functional assay
Slo-1/BKB3 = molecular target: T2, Slo-1/BKB3 (Homo sapiens, UniProt Q12791); assay: Whole-cell voltage-clamp of membrane currents in HEK293 cells co-expressing Slo-1 and BK beta 3; type: cell-based; conditions: Slo-1 + BK beta 3 in HEK293 cells, 250 ms depolarizing steps from holding potential -80 mV; for sensitivity (block) of membrane currents: CTX 100 nM
T2 construct: expressed in transfected cells; host or cells: HEK293
Description: (§1) FIGS. 6A-B. Slo-1/BKB3 forms BK type II-like charybdotoxin—(CTX) insensitive channels. Slo-1 (A) or Slo-1+BK beta 3 (B) were expressed in HEK293 cells and membrane currents measured using the whole-cell voltage-clamp technique. […]. In contrast, membrane currents in cells co-expressing Slo-1 and BK beta 3 were TEA (5 mM) sensitive but CTX (100 nM) insensitive (FIG. 6B). Similar recordings were made from 4 cells expressing Slo-1 alone and 6 cells co-expressing Slo-1/BKB3. Scale bars represent 1 nA and 200 ms.

Slo-1 [2] = molecular target: T1, Slo-1; assay: Whole-cell voltage-clamp of membrane currents in HEK293 cells expressing Slo-1 alone; type: cell-based; design: expressed in transfected cells; host or cells: HEK293; conditions: Slo-1 alone in HEK293 cells, 250 ms depolarizing steps from holding potential -80 mV; for inhibition (block) of membrane currents: CTX 100 nM
Description: as §1

T1 sequence (Q12791 whole entry): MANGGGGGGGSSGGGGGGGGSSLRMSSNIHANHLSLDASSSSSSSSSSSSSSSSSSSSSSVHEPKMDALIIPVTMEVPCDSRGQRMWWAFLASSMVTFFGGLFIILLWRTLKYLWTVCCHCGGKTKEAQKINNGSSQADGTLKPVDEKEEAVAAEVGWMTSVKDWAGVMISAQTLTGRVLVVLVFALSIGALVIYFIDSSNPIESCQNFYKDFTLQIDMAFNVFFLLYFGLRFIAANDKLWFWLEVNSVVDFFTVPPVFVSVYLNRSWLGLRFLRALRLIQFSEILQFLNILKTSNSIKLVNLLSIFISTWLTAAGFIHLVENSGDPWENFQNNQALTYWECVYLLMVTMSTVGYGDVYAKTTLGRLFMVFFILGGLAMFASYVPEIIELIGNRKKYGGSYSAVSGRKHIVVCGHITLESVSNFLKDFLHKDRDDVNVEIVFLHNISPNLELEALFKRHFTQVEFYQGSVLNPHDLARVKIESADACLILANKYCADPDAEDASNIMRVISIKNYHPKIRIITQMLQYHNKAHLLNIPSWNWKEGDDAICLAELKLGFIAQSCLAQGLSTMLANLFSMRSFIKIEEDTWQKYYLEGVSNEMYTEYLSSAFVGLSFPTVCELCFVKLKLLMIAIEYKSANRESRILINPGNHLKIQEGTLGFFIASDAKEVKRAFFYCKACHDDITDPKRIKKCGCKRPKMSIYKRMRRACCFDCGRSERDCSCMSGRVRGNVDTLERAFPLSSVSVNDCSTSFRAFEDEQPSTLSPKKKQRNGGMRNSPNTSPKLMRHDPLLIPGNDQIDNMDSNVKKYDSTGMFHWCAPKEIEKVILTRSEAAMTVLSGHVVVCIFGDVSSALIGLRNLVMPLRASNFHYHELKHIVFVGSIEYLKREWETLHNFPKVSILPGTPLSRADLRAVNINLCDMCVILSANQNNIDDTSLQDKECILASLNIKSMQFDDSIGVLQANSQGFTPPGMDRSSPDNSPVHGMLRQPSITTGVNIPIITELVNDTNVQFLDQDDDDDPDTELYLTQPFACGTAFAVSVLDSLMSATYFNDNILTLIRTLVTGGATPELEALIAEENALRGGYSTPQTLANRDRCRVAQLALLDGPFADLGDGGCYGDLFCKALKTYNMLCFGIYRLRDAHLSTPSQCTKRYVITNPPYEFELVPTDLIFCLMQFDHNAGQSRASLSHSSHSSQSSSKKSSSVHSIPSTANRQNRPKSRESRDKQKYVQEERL
T2 sequence (Q12791 whole entry): as above
T2 sequence (Q86W47 whole entry W137E partner): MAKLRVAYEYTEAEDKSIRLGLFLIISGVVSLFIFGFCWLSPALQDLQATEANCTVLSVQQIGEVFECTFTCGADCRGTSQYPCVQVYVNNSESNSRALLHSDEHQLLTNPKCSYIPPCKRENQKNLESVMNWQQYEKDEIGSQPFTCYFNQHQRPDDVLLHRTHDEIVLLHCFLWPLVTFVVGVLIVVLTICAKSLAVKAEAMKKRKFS

human BK beta 3
shift of the Slo-1 activation curve (V1/2 act), patch clamp, 50 uM free Ca2+ (Slo-1 [1]): 15 mV

CC[N+](CC)(CC)CC [TEA]
sensitivity of membrane currents (Slo-1/BKB3; TEA 5 mM): sensitive | inhibition of membrane currents (Slo-1 [2]; TEA 5 mM): strongly inhibited

charybdotoxin [CTX]
sensitivity (block) of membrane currents (Slo-1/BKB3): insensitive | sensitivity (block) of membrane currents (Slo-1/BKB3; listed as charybdotoxin): virtually unblocked | inhibition (block) of membrane currents (Slo-1 [2]): strongly inhibited | inhibition (block) of membrane currents (Slo-1 [2]; listed as charybdotoxin): almost completely blocked
